Assay results: the RNAGym collection of RNA variant scans (doi:10.7554/elife.90254)

B1: LINE1-full (parent)
chain: UACGUAGGUGGUUUUCCCCUGAUAGUGCUAAGGGGGCCUGGAAGUUUGGACUGGGCAGAGCUCAACACAGCGUGGCAAAGUGGCUGUGGCUAGACUGCCUCUCUGGAUUCCUCGUCACUCAGCAGGGCAUCUCUGAGAGAAAUGCC

Variants of: B1
Assay: self-cleavage, relative activity (ratio to wild type); higher = more cleavage; in vitro, sequencing; the parent is a self-cleaving ribozyme
With UACGUAGGUGGUUUUCCCCUGAUAGUGCUUAGGGGGCCUGGAAGUUUGGACCGGGCAGAGCUCAACACAGCGUGGCAAAGUGGCUGUGGCUAGACUGCCUCUCUGGAUUCCUCGUCACUCAGCAGGGCAUCUCUGAGAGAAAUGCC the self-cleavage was 1.09. UACGUAGGUGGUUUUCCCCUGAUAGUGCUUAGGGGGCCUGGAAGUUUGGACUGGGCAGAGCUCAACACAGCGAGGCAAAGUGGCUGUGGCUAGACUGCCUCUCUGGAUUCCUCGUCACUCAGCAGGGCAUCUCUGAGAGAAAUGCC showed a self-cleavage of 2.55. For UACGUAGGUGGUUUUCCCCUGAUAGUGCUUAGGGGGCCUGGAAGUUUGGACUGGGCAGAGCUCAACACAGCGCGGCAAAGUGGCUGUGGCUAGACUGCCUCUCUGGAUUCCUCGUCACUCAGCAGGGCAUCUCUGAGAGAAAUGCC, the self-cleavage was 1.8. UACGUAGGUGGUUUUCCCCUGAUAGUGCUUAGGGGGCCUGGAAGUUUGGACUGGGCAGAGCUCAACACAGCGUGGCAAAGCGGCUGUGGCUAGACUGCCUCUCUGGAUUCCUCGUCACUCAGCAGGGCAUCUCUGAGAGAAAUGCC gave a self-cleavage of 1.52. UACGUAGGUGGUUUUCCCCUGAUAGUGCUUAGGGGGCCUGGAAGUUUGGACUGGGCAGAGCUCAACACAGCGUGGCAAAGUGGCCGUGGCUAGACUGCCUCUCUGGAUUCCUCGUCACUCAGCAGGGCAUCUCUGAGAGAAAUGCC showed a self-cleavage of 0.1. For UACGUAGGUGGUUUUCCCCUGAUAGUGCUUAGGGGGCCUGGAAGUUUGGACUGGGCAGAGCUCAACACAGCGUGGCAAAGUGGCUGUGGCUAGACUGCCUCACUGGAUUCCUCGUCACUCAGCAGGGCAUCUCUGAGAGAAAUGCC, the self-cleavage was 0.58. In the case of UACGUAGGUGGUUUUCCCCUGAUAGUGCUUAGGGGGCCUGGAAGUUUGGACUGGGCAGAGCUCAACACAGCGUGGCAAAGUGGCUGUGGCUAGACUGCCUCCCUGGAUUCCUCGUCACUCAGCAGGGCAUCUCUGAGAGAAAUGCC, the self-cleavage is reported as 0.75. UACGUAGGUGGUUUUCCCCUGAUAGUGCUUAGGGGGCCUGGAAGUUUGGACUGGGCAGAGCUCAACACAGCGUGGCAAAGUGGCUGUGGCUAGACUGCCUCUCUGGAUCCCUCGUCACUCAGCAGGGCAUCUCUGAGAGAAAUGCC gave a self-cleavage of 1.33. Variant UACGUAGGUGGUUUUCCCCUGAUAGUGCUUAGGGGGCCUGGAAGUUUGGACUGGGCAGAGCUCAACACAGCGUGGCAAAGUGGCUGUGGCUAGACUGCCUCUCUGGAUUCCUCGCCACUCAGCAGGGCAUCUCUGAGAGAAAUGCC has a self-cleavage of 1.16. For UACGUAGGUGGUUUUCCCCUGAUAGUGCUUAGGGGGCCUGGAAGUUUGGACUGGGCAGAGCUCAACACAGCGUGGCAAAGUGGCUGUGGCUAGACUGCCUCUCUGGAUUCCUCGUCACCCAGCAGGGCAUCUCUGAGAGAAAUGCC, the self-cleavage was 0.5. With UACGUAGGUGGUUUUCCCCUGAUAGUGCUUAGGGGGCCUGGAAGUUUGGACUGGGCAGAGCUCAACACAGCGUGGCAAAGUGGCUGUGGCUAGACUGCCUCUCUGGAUUCCUCGUCACUCAGCAGGGCAUCUCAGAGAGAAAUGCC the self-cleavage was 0.68. With UACGUAGGUGGUUUUCCCCUGAUAGUGCUUAGGGGGCCUGGAAGUUUGGACUGGGCAGAGCUCAACACAGCGUGGCAAAGUGGCUGUGGCUAGACUGCCUCUCUGGAUUCCUCGUCACUCAGCAGGGCAUCUCUGAGAGAAACGCC the self-cleavage was 0.77. Variant UACGUAGGUGGUUUUCCCCUGAUAGUGCUUAGGGGGCCUGGAAGUUUGGACUGGGCAGAGCUCAACACAGCGUGGCAAAGUGGCUGUGGCUAGACUGCCUCUCUGGAUUCCUCGUCACUCAGCAGGGCAUCUCUGAGAGAAAGGCC has a self-cleavage of 1.38. For UACGUAGGUGGUUUUCCCCUGAUAGUGCUACGGGGGCCUGGAAGUUUGGACUGGGCAGCGCUCAACACAGCGUGGCAAAGUGGCUGUGGCUAGACUGCCUCUCUGGAUUCCUCGUCACUCAGCAGGGCAUCUCUGAGAGAAAUGCC, the self-cleavage was 0.61. Work on UACGUAGGUGGUUUUCCCCUGAUAGUGCUACGGGGGCCUGGAAGUUUGGACUGGGCAGGGCUCAACACAGCGUGGCAAAGUGGCUGUGGCUAGACUGCCUCUCUGGAUUCCUCGUCACUCAGCAGGGCAUCUCUGAGAGAAAUGCC yielded a self-cleavage of 0.26. Work on UACGUAGGUGGUUUUCCCCUGAUAGUGCUACGGGGGCCUGGAAGUUUGGACUGGGCAGAGCUCAACACGGCGUGGCAAAGUGGCUGUGGCUAGACUGCCUCUCUGGAUUCCUCGUCACUCAGCAGGGCAUCUCUGAGAGAAAUGCC yielded a self-cleavage of 0.33. Variant UACGUAGGUGGUUUUCCCCUGAUAGUGCUACGGGGGCCUGGAAGUUUGGACUGGGCAGAGCUCAACACAGCGUGGCAAGGUGGCUGUGGCUAGACUGCCUCUCUGGAUUCCUCGUCACUCAGCAGGGCAUCUCUGAGAGAAAUGCC has a self-cleavage of 1.02. UACGUAGGUGGUUUUCCCCUGAUAGUGCUACGGGGGCCUGGAAGUUUGGACUGGGCAGAGCUCAACACAGCGUGGCAAAGUGGCUGUGGCUAGACUGCCUCUCUGGAUUCCUCGUCACUCAGCAGGGCUUCUCUGAGAGAAAUGCC gave a self-cleavage of 1.51. Variant UACGUAGGUGGUUUUCCCCUGAUAGUGCUACGGGGGCCUGGAAGUUUGGACUGGGCAGAGCUCAACACAGCGUGGCAAAGUGGCUGUGGCUAGACUGCCUCUCUGGAUUCCUCGUCACUCAGCAGGGCAUCUCUGAGGGAAAUGCC has a self-cleavage of 1.31. In the case of UACGUAGGUGGUUUUCCCCUGAUAGUGCUACGGGGGCCUGGAAGUUUGGACUGGGCAGAGCUCAACACAGCGUGGCAAAGUGGCUGUGGCUAGACUGCCUCUCUGGAUUCCUCGUCACUCAGCAGGGCAUCUCUGAGAGGAAUGCC, the self-cleavage is reported as 1.18. Work on UACGUAGGUGGUUUUCCCCUGAUAGUGCUACGGGGGCCUGGAAGUUUGGACUGGGCAGAGCUCAACACAGCGUGGCAAAGUGGCUGUGGCUAGACUGCCUCUCUGGAUUCCUCGUCACUCAGCAGGGCAUCUCUGAGAGAGAUGCC yielded a self-cleavage of 1.43. UACGUAGGUGGUUUUCCCCUGAUAGUGCUACGGGGGCCUGGAAGUUUGGACUGAGCAGAGCUCAACACAGCGUGGCAAAGUGGCUGUGGCUAGACUGCCUCUCUGGAUUCCUCGUCACUCAGCAGGGCAUCUCUGAGAGAAAUGCC gave a self-cleavage of 1.02. UACGUAGGUGGUUUUCCCCUGAUAGUGCUACGGGGGCCUGGAAGCUUGGACUGGGCAGAGCUCAACACAGCGUGGCAAAGUGGCUGUGGCUAGACUGCCUCUCUGGAUUCCUCGUCACUCAGCAGGGCAUCUCUGAGAGAAAUGCC gave a self-cleavage of 1.84. In the case of UACGUAGGUGGUUUUCCCCUGAUAGUGCUACGGGGGCCUGGAAGUUAGGACUGGGCAGAGCUCAACACAGCGUGGCAAAGUGGCUGUGGCUAGACUGCCUCUCUGGAUUCCUCGUCACUCAGCAGGGCAUCUCUGAGAGAAAUGCC, the self-cleavage is reported as 1.12. For UACGUAGGUGGUUUUCCCCUGAUAGUGCUACGGGGGCCUGGAAGUUUGGACUGGGCAGAGCUCAACACAGCGUGGCAAAGUGGCUGAGGCUAGACUGCCUCUCUGGAUUCCUCGUCACUCAGCAGGGCAUCUCUGAGAGAAAUGCC, the self-cleavage was 0.07. In the case of UACGUAGGUGGUUUUCCCCUGAUAGUGCUACGGGGGCCUGGAAGUUUGGACUGGGCAGAGCUCAACACAGCGUGGCAAAGUGGCUGUGGCUAGACUGCCUCUCUGGAUCCCUCGUCACUCAGCAGGGCAUCUCUGAGAGAAAUGCC, the self-cleavage is reported as 2.01. Work on UACGUAGGUGGUUUUCCCCUGAUAGUGCUACGGGGGCCUGGAAGUUUGGACUGGGCAGAGCUCAACACAGCGUGGCAAAGUGGCUGUGGCUAGACUGCCUCUCUGGAUUCCUCGUCACUCAGCAGGGCAUCCCUGAGAGAAAUGCC yielded a self-cleavage of 2.33. Variant UACGUAGGUGGUUUUCCCCUGAUAGUGCUACGGGGGCCUGGAAGUUUGGACUGGGCAGAGCUCAACACAGCGUGGCAAAGUGGCUGUGGCUAGACUGCCUCUCUGGAUUCCUCGUCACUCAGCAGGGCAUCUCAGAGAGAAAUGCC has a self-cleavage of 1.26. Variant UACGUAGGUGGUUUUCCCCUGAUAGUGCUACGGGGGCCUGGAAGUUUGGACUGGGCAGAGCUCAACACAGCGUGGCAAAGUGGCUGUGGCUAGACUGCCUCUCUGGAUUCCUCGUCACUCAGCAGGGCAUCUCUGAGAGAAAAGCC has a self-cleavage of 1.01. For UACGUAGGUGGUUUUCCCCUGAUAGUGCUAGGGGGGCCUGGAUGUUUGGACUGGGCAGAGCUCAACACAGCGUGGCAAAGUGGCUGUGGCUAGACUGCCUCUCUGGAUUCCUCGUCACUCAGCAGGGCAUCUCUGAGAGAAAUGCC, the self-cleavage was 0.89. In the case of UACGUAGGUGGUUUUCCCCUGAUAGUGCUAGGGGGGCCUGGAAGUUUGGGCUGGGCAGAGCUCAACACAGCGUGGCAAAGUGGCUGUGGCUAGACUGCCUCUCUGGAUUCCUCGUCACUCAGCAGGGCAUCUCUGAGAGAAAUGCC, the self-cleavage is reported as 1.42. For UACGUAGGUGGUUUUCCCCUGAUAGUGCUAGGGGGGCCUGGAAGUUUGGACUGGGCGGAGCUCAACACAGCGUGGCAAAGUGGCUGUGGCUAGACUGCCUCUCUGGAUUCCUCGUCACUCAGCAGGGCAUCUCUGAGAGAAAUGCC, the self-cleavage was 0.95. Variant UACGUAGGUGGUUUUCCCCUGAUAGUGCUAGGGGGGCCUGGAAGUUUGGACUGGGCUGAGCUCAACACAGCGUGGCAAAGUGGCUGUGGCUAGACUGCCUCUCUGGAUUCCUCGUCACUCAGCAGGGCAUCUCUGAGAGAAAUGCC has a self-cleavage of 0.3. With UACGUAGGUGGUUUUCCCCUGAUAGUGCUAGGGGGGCCUGGAAGUUUGGACUGGGCAGAGCUCGACACAGCGUGGCAAAGUGGCUGUGGCUAGACUGCCUCUCUGGAUUCCUCGUCACUCAGCAGGGCAUCUCUGAGAGAAAUGCC the self-cleavage was 0.31. UACGUAGGUGGUUUUCCCCUGAUAGUGCUAGGGGGGCCUGGAAGUUUGGACUGGGCAGAGCUCAACACGGCGUGGCAAAGUGGCUGUGGCUAGACUGCCUCUCUGGAUUCCUCGUCACUCAGCAGGGCAUCUCUGAGAGAAAUGCC gave a self-cleavage of 0.78. In the case of UACGUAGGUGGUUUUCCCCUGAUAGUGCUAGGGGGGCCUGGAAGUUUGGACUGGGCAGAGCUCAACACAGCGUGGCGAAGUGGCUGUGGCUAGACUGCCUCUCUGGAUUCCUCGUCACUCAGCAGGGCAUCUCUGAGAGAAAUGCC, the self-cleavage is reported as 2.49. UACGUAGGUGGUUUUCCCCUGAUAGUGCUAGGGGGGCCUGGAAGUUUGGACUGGGCAGAGCUCAACACAGCGUGGCAAUGUGGCUGUGGCUAGACUGCCUCUCUGGAUUCCUCGUCACUCAGCAGGGCAUCUCUGAGAGAAAUGCC showed a self-cleavage of 2.64. With UACGUAGGUGGUUUUCCCCUGAUAGUGCUAGGGGGGCCUGGAAGUUUGGACUGGGCAGAGCUCAACACAGCGUGGCAAAGUGGCUGUGGCUGGACUGCCUCUCUGGAUUCCUCGUCACUCAGCAGGGCAUCUCUGAGAGAAAUGCC the self-cleavage was 0.09. For UACGUAGGUGGUUUUCCCCUGAUAGUGCUAGGGGGGCCUGGAAGUUUGGACUGGGCAGAGCUCAACACAGCGUGGCAAAGUGGCUGUGGCUAGGCUGCCUCUCUGGAUUCCUCGUCACUCAGCAGGGCAUCUCUGAGAGAAAUGCC, the self-cleavage was 0.94.
